This note sets out measurements from patent publication US20030049699A1 (published 2003).

B1: TA-C-fibulin2 (C-terminal part of murine fibulin 2, amino acids 863 to 1195, fused with the transcription activating domain of Gal4) (other, not shown: large carriers)
chain: EGSECVDVNECETGVHRCGEGQLCYNLPGSYRCDCKPGFQRDAFGRTCIDVNECWVSPGRLCQHTCENTPGSYRCSCAAGFLLAADGKHCEDVNECETRRCSQECANIYGSYQCYCRQGYQLAEDGHTCTDIDECAQGAGILCTFRCVNVPGSYQCACPEQGYTMMANGRSCKDLDECALGTHNCSEAETCHNIQGSFRCLRFDCPPNYVRVSQTKCERTTCQDITECQTSPARITHYQLNFQTGLLVPAHIFRIGPAPAFAGDTISLTITKGNEEGYFVTRRLNAYTGVVSLQRSVLEPRDFALDVEMKLWRQGSVTTFLAKMYIFFTTFAP
notes: also called product of plasmid TA-C-FIB2
B3: DB-Fos (fusion protein between the DNA-binding domain of the Gal4 protein and a fragment of the human Fos protein, amino acids 132 to 211) (other, S. cerevisiae;human, UniProt P04386 1-147, looked up)
chain: MKLLSSIEQACDICRLKKLKCSKEKPKCAKCLKNNWECRYSPKTKRSPLTRAHLTEVESRLERLEQLFLLIFPREDLDMILKMDSLQDIKALLTGLFVQDNVNKDAVTDRLASVETDMPLTLRQHRISATSSSEESSNKGQRQLTVSLSPEEEEKRRIRRERNKMAAAKCRNRRRELTDTLQAETDQLEDEKSALQTEIANLLKEKEKLEFILAAHRPACKIPDDLG
notes: Control fusion in the yeast two-hybrid test; also called DE-Fos; pPC76 product
B4: TA-C-mbp1 (C-terminal part of murine MBP1 fused with the transcription activating domain of Gal4) (other, not shown: large carriers)
chain: CTCPDGYRKIGPECVDIDECRYRYCQHRCVNLPGSFRCQCEPGFQLGPNNRSCVDVNECDMGAPCEQRCFNSYGTFLCRCNQGYELHRDGFSCSDIDECGYSSYLCQYRCVNEPGRFSCHCPQGYQLLATRLCQDIDECETGAHQCSEAQTCVNFHGGYRCVDTNRCVEPYVQVSDNRCLCPASNPLCREQPSSIVHRYMSITSERSVPADVFQIQATSVYPGAYNAFQIRSGNTQGDFYIRQINNVSAMLVLARPVTGPREYVLDLEMVTMNSLMSYRASSVLRLTVFVGAYTF
notes: Library clone from mouse embryo cDNA library pPC67; also called product of plasmid TA-C-MBP1

The target of test [1] is T1, DB-wt (fragment 73-393 of wild-type human p53 fused with the DNA-binding domain of Gal4) (S. cerevisiae; human, UniProt P04386 1-147; P04637 73-393).
T1 construct: Yeast two-hybrid fusion; also called 73-393 wt in pPC97
Kind of test: yeast two-hybrid, strain YCM17, URA3 and LacZ reporters. The protocol:
(§1) After the cotransformation, the various clones obtained were tested for the phenotypes associated with the URA3 and LacZ genes.

The target in test [2] is T2, DB protein (DNA-binding domain of Gal4 alone, plasmid pPC97) (S. cerevisiae, UniProt P04386 1-147).
T2 construct: Empty-vector control of the two-hybrid tests
Described as above. As to the method:
as §1

The target in test [3] is B3. The description is as above. The protocol:
as §1

Test [4] deals with T3, DB-C-fibulin2 (C-fibulin2 fused with the DNA-binding domain of Gal4) (S. cerevisiae; murine, UniProt P04386 1-147, limits assumed).
T3 construct: also called product of plasmid DB-C-FIB2
Kind of test: yeast two-hybrid, strain PCY2, LacZ reporter.

The target in test [5] is T4, DB-C-mbp1 (C-mbp1 fused with the DNA-binding domain of Gal4) (S. cerevisiae; murine, UniProt P04386 1-147).
T4 construct: also called DB-C-mbpl; product of plasmid DB-C-MBP1
Kind of test: yeast two-hybrid, strain PCY2, LacZ reporter.

In test [6] the target is B4. The test can be described thus: yeast two-hybrid, strain YCM17, URA3 and LacZ reporters. As to the method:
as §1

The target in test [7] is B1. Described as above. The protocol:
as §1

Take B1: the binding result in test [1] was “no binding”.

B2: TA (transcription activating domain of Gal4 alone, plasmid pPC86) (other, S. cerevisiae, UniProt P04386 768-881, looked up)
chain: ANFNQSGNIADSSLSFTFTNSSNGPNLITTQTNSQALSQPIASSNVHDNFMNNEITASKIDDGNNSKPLSPGWTDQTAYNAFGITTGMFNTTTMDDVYNYLFDDEDTPPNPKKE
notes: Empty-vector control of the two-hybrid tests
Take B2: the binding result in test [2], in test [3], in test [1], in test [4] and in test [5] was “no binding” throughout.

In the case of B3, the binding result in test [6] and in test [7] was “no binding” each time.

Turning to B4, the binding result in test [1] is on record as “no binding”.
